From the supplement of paper PMC10567573

B1: NP_009172.2 (parent)
chain: LPALFTDLYSQEITAEEAREALP

Variants of: B1
Assay: protein stability index of a GFP-peptide fusion (GPS, HEK-293T) (PSI 1-6); higher = more stable
Settings: c terminus: native
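Further: lentivirally expressed fusion library, cells FACS-sorted into six equal-sized GFP/DsRed ratio bins, PSI computed from sequencing read fractions per bin weighted by bin number.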

In order of falling protein stability index:
1. LPALNTDLYSQEITAEEAREALP [F5N]  5.52
2. LPALRTDLYSQEITAEEAREALP [F5R]  5.42
3. LPALATDLYSQEITAEEAREALP [F5A]  5.41
4. LPALFTDLDSQEITAEEAREALP [Y9D]  5.38
5. LPALETDLYSQEITAEEAREALP [F5E]  5.38
6. LPALSTDLYSQEITAEEAREALP [F5S]  5.37
7. LPALFTDLGSQEITAEEAREALP [Y9G]  5.3
8. LPALPTDLYSQEITAEEAREALP [F5P]  5.3
9. LPALGTDLYSQEITAEEAREALP [F5G]  5.28
10. LPALQTDLYSQEITAEEAREALP [F5Q]  5.24
11. LPALMTDLYSQEITAEEAREALP [F5M]  5.24
12. LPALFTDLQSQEITAEEAREALP [Y9Q]  5.15
13. LPALFTDLYSQEITAEEAREALD [P23D]  5.15
14. LPALITDLYSQEITAEEAREALP [F5I]  5.08
15. LPALVTDLYSQEITAEEAREALP [F5V]  5.07
16. LPALFTDLYSQEITAEEAREALN [P23N]  4.89
17. LPADFTDLYSQEITAEEAREALP [L4D]  4.87
18. LPALFTDLYSQEITAEEAREALQ [P23Q]  4.85
19. LPALFTDLYSQEITAEEAREALK [P23K]  4.82
20. LPALFTDLYSQEITAEEAREALS [P23S]  4.8
21. LPALFTDLHSQEITAEEAREALP [Y9H]  4.49
22. LPALFTDLYSQEITAEEAREALC [P23C]  4.21
23. LPDLFTDLYSQEITAEEAREALP [A3D]  4.1
24. LPALFTDLSSQEITAEEAREALP [Y9S]  3.98
25. DPALFTDLYSQEITAEEAREALP [L1D]  3.9
26. LPALFTDLYSPEITAEEAREALP [Q11P]  3.82
27. LPALYTDLYSQEITAEEAREALP [F5Y]  3.72
28. LPALFTDLYSQEITAEEAREALY [P23Y]  3.49
29. LPALFTDLYSQENTAEEAREALP [I13N]  3.46
30. LPALFTDLYSDEITAEEAREALP [Q11D]  3.31
31. LPALFTDLYSQEDTAEEAREALP [I13D]  3.25
32. LPALFTDLYSTEITAEEAREALP [Q11T]  3.21
33. LPALFTDLMSQEITAEEAREALP [Y9M]  3.13
34. LPALFTDLYGQEITAEEAREALP [S10G]  3.08
35. LPALFTDLYSQEITPEEAREALP [A15P]  3.05
36. LPALFTDLYSSEITAEEAREALP [Q11S]  3.04
37. LPALFTDLYSQEITCEEAREALP [A15C]  3
38. LPALFTDLYSCEITAEEAREALP [Q11C]  2.95
39. MPALFTDLYSQEITAEEAREALP [L1M]  2.91
40. LPALFTDLYSEEITAEEAREALP [Q11E]  2.88
41. LPALFTDLYSQEITAEQAREALP [E17Q]  2.83
42. LPALFTDLYSQEITAEEAREALR [P23R]  2.83
43. LPALFTDLYSQEITGEEAREALP [A15G]  2.83
44. LPALFTDLFSQEITAEEAREALP [Y9F]  2.81
45. GPALFTDLYSQEITAEEAREALP [L1G]  2.77
46. LPALFTDLTSQEITAEEAREALP [Y9T]  2.74
47. LPSLFTDLYSQEITAEEAREALP [A3S]  2.74
48. LPALFTDLYSQEITAEPAREALP [E17P]  2.73
49. LPALFTDLYSQEIGAEEAREALP [T14G]  2.73
50. LPALFTDLYSQEHTAEEAREALP [I13H]  2.71
51. LPALFTDLYRQEITAEEAREALP [S10R]  2.71
52. LPALFTDLYSQEFTAEEAREALP [I13F]  2.69
53. LPALFTDLYSQEYTAEEAREALP [I13Y]  2.69
54. LPGLFTDLYSQEITAEEAREALP [A3G]  2.68
55. LPALFTDLYSQEITWEEAREALP [A15W]  2.68
56. WPALFTDLYSQEITAEEAREALP [L1W]  2.68
57. LPALFTDLYSQEISAEEAREALP [T14S]  2.67
58. LPALFTDLYSQEKTAEEAREALP [I13K]  2.66
59. LPALFTDLYSQEITNEEAREALP [A15N]  2.66
60. LPALFTDLWSQEITAEEAREALP [Y9W]  2.65
61. LPALFTDLYSQEIWAEEAREALP [T14W]  2.62
62. VPALFTDLYSQEITAEEAREALP [L1V]  2.59
63. FPALFTDLYSQEITAEEAREALP [L1F]  2.59
64. LPALFTDLYQQEITAEEAREALP [S10Q]  2.57
65. LPALFTDLYFQEITAEEAREALP [S10F]  2.57
66. LPTLFTDLYSQEITAEEAREALP [A3T]  2.56
67. LPALFTDLYSQEITEEEAREALP [A15E]  2.55
68. LPASFTDLYSQEITAEEAREALP [L4S]  2.55
69. CPALFTDLYSQEITAEEAREALP [L1C]  2.5
70. LPVLFTDLYSQEITAEEAREALP [A3V]  2.49
71. PPALFTDLYSQEITAEEAREALP [L1P]  2.49
72. LPALFTDLYSQEVTAEEAREALP [I13V]  2.46
73. LPALFTDLYSQEIHAEEAREALP [T14H]  2.46
74. LPALFTDLYSQEIMAEEAREALP [T14M]  2.45
75. LPALFTDLYSQEITAEVAREALP [E17V]  2.43
76. TPALFTDLYSQEITAEEAREALP [L1T]  2.4
77. LPALFTDLLSQEITAEEAREALP [Y9L]  2.39
78. LPALFTDLYSQEITAEAAREALP [E17A]  2.39
79. LPALFTDLYSQEITAEFAREALP [E17F]  2.38
80. LPALFTDLYTQEITAEEAREALP [S10T]  2.38
81. LPALFTDLYYQEITAEEAREALP [S10Y]  2.36
82. LPALFTDLYSQEITREEAREALP [A15R]  2.36
83. LPALFTDLYSQEITAEYAREALP [E17Y]  2.32
84. SPALFTDLYSQEITAEEAREALP [L1S]  2.32
85. LPALFTDLYSQEITAETAREALP [E17T]  2.3
86. LPALFTDLYLQEITAEEAREALP [S10L]  2.3
87. LPALFTDLYSQEIQAEEAREALP [T14Q]  2.27
88. LPALFTDLYSREITAEEAREALP [Q11R]  2.26
89. LPALWTDLYSQEITAEEAREALP [F5W]  2.25
90. LPALFTDLYSQEITAECAREALP [E17C]  2.24
91. LPALFTDLVSQEITAEEAREALP [Y9V]  2.21
92. LPALFTDLYSQEIAAEEAREALP [T14A]  2.21
93. LPARFTDLYSQEITAEEAREALP [L4R]  2.21
94. LPALFTDLYSQEITAEHAREALP [E17H]  2.2
95. LPALFTDLYSQERTAEEAREALP [I13R]  2.1
96. LPALFTDLYIQEITAEEAREALP [S10I]  1.95
97. KPALFTDLYSQEITAEEAREALP [L1K]  1.72
